Substrate in the series: CCCCC/C=C\C/C=C\C/C=C\C/C=C\CCCC(=O)O
As to the kind of experiment: radiometric acyl-CoA synthetase assay. The series is classed as biochemical, Rattus norvegicus. The settings on record: ATP, Mg2+.

Usually Km stands for the substrate concentration at which the rate is half of its maximum. Broadly, the Vmax is the top rate of the reaction or transport when substrate is in excess.

B1: Acsl3 (Rattus norvegicus) (protein)
chain: MNNHVSSTPSTMKLKQTIHPILLYFIHFIISLYTILTYIPFYFLCESKQEKPNHIKAKPVSSKPDSAYRSVNSMDGLASVLYPGCDTLDKVFMYAKNKFKDKRLLGTREILNEEDEIQPNGKVFKKVILGHYNWLSYEDVFIRALDFGNGLQMLGQKPKANIAIFCETRAEWMIAAQACFMYNFQLVTLYATLGGPAIVHGLNETEVTNIITSKELLQTKLKDIVSLVPRLRHIITVDGKPPTWSEFPKGVIVHTMAAVQALGVKADVDKKAHSKPLPSDIAVIMYTSGSTGIPKGVMISHSNIIASITGMARRIPRLGEEDVYIGYLPLAHVLELSAELVCLSHGCRIGYSSPQTLADQSSKIKKGSKGDTSVLKPTLMAAVPEIMDRIYKNVMNKVNEMSAFQRNLFILAYNYKMEQISKGCSTPLCDRFVFRNVRRLLGGNIRVLLCGGAPLSATTQRFMNICFCCPVGQGYGLTESTGAGTITEVWDYNTGRVGAPLVCCEIKLKNWEEGGYFNTDKPHPRGEILIGGQNVTMGYYKNEAKTKADFFEDENGQRWLCTGDIGEFDPDGCLKIIDRKKDLVKLQAGEYVSLGKVEAALKNLPLIDNICAYANSYHSYVIGFVVPNQKELTELARTKGFNGTWEELCNSSEMENEVLKVLSEAAISASLEKFEIPLKIRLSPDPWTPETGLVTDAFKLKRKELKTHYQADIERMYGRK
As to B1, the Km stood at 48 µM, the Vmax was determined as 0.008 µmol/min/mg and the Vmax/Km came to 3e-05 min⁻¹.
